Data published in article PMC3787022, “Small Angle X-Ray Scattering Studies of Mitochondrial Glutaminase C Reveal Extended Flexible Regions, and Link Oligomeric State with Enzyme Activity” (PLoS ONE, 2013).

Key:
[1] = molecular target: the molecule itself; assay: SEC-MALS; protein concentration screen 1.4-9.7 uM, no K2HPO4; WTC-030S5 column, 20 mM Tris-HCl pH 8.5, 500 mM NaCl, 23°C
D3Z7P3 = assay: SAXS; phosphate (Pi) titration 0-100 mM, microfluidic mixing chip, 36 sec mixing time; GACwt constant at 30.7 uM, GACΔC constant at 33.8 uM; 20 mM Tris-HCl, 500 mM NaCl, 0.5 mM TCEP, 1 mM sodium azide; analysed with OLIGOMER; conditions: other: SAXS
[2] = molecular target: the molecule itself; assay: SEC-MALS; phosphate screen, K2HPO4 0, 25, 50 and 100 mM; protein 5 uM in the peak (injected 70 uM); WTC-030S5 column, 20 mM Tris-HCl pH 8.5, 500 mM NaCl, 23°C

B1: Glutaminase C wildtype construct (mouse GAC, residues 73-603) (enzyme, UniProt D3Z7P3-2 73-603, looked up)
chain: SSSPSEILQELGKGGTPPQQQQQQQQQPGASPPAAPGPKDSPGETDAFGNSEGKEMVAAGDNKIKQGLLPSLEDLLFYTIAEGQEKIPVHKFITALKSTGLRTSDPRLKECMDMLRLTLQTTSDGVMLDKDLFKKCVQSNIVLLTQAFRRKFVIPDFMSFTSHIDELYESAKKQSGGKVADYIPQLAKFSPDLWGVSVCTVDGQRHSIGDTKVPFCLQSCVKPLKYAIAVNDLGTEYVHRYVGKEPSGLRFNKLFLNEDDKPHNPMVNAGAIVVTSLIKQGVNNAEKFDYVMQFLNKMAGNEYVGFSNATFQSERESGDRNFAIGYYLKEKKCFPEGTDMVGILDFYFQLCSIEVTCESASVMAATLANGGFCPITGERVLSPEAVRNTLSLMHSCGMYDFSGQFAFHVGLPAKSGVAGGILLVVPNVMGMMCWSPPLDKMGNSVKGIHFCHDLVSLCNFHNYDNLRHFAKKLDPRREGGDQRHSFGPLDYESLQQELALKDTVWKKVSPESSDDTSTTVVYRMESLGERS
notes: GAC isoform of 603 residues; also called GACwt; GAC wildtype; source: expressed from a pET28a vector, purified (Ni-column, anion-exchange, gel filtration); not shown: histidine tag, N-terminal, cleaved
In the case of B1, the “stoichiometry N” value [1] is reported as 4, the “volume fraction of octamers at 80 mM Pi” value (D3Z7P3) is reported as “a maximum of 38% at 80 mM Pi” and the “stoichiometry N” value [2] is reported as roughly 4.
